Assay results taken from publication PMC9907810 (2023).

Molecular target: SARS-CoV-2 receptor-binding domain (RBD), prototype (Wuhan-Hu-1), Avi-tagged and biotinylated (SARS-CoV-2)
Assay: BLI

B1: Ab08 single-chain fragment variable (scFv) (scFv, V domains shown)
VH: QVQLVQSGAEVKKPGSSVKVSCKASGGTFSSYTISWVRQAPGQGLEWMGGIIPILGTTNYAQKFQGRVTITADESTSTAYMELSSLRSEDTAVYYCARKFGYSGYGATWYFDLWGRGTLVTVSS
VL: QSVLTQPPSVSGAPGQRVTISCTGNSSNIGAGYDVHWYQQFPGTAPKLLIYGNSNRPSGVPDRFSGSKSGTSASLAITGLQAEDEADYYCQSYDSSLSGSVFGGGTKLTVL
Question: B1 was tested. Which koff did it give?
Answer: Its koff is 7.5e-05 s⁻¹.
